Laboratory results reported in patent publication US20180355056A1 (Novartis, published 2018).

Legend:
[1] = target: T1, Human FXI zymogen (human, UniProt P03951 19-625); assay: SET KD compared with the BIACORE KD for the FXI catalytic domain
T1 construct: also called huFXI; zymogen FXI

[2] = target: T2, Human FXI activated (human, UniProt P03951 19-387; P03951 388-625); assay: as above
T2 construct: The activity assay used Kordia HFXIa 1111a; also called huFXIa
T2 sequence (P03951 19-387 C226S, chain 1 of 2): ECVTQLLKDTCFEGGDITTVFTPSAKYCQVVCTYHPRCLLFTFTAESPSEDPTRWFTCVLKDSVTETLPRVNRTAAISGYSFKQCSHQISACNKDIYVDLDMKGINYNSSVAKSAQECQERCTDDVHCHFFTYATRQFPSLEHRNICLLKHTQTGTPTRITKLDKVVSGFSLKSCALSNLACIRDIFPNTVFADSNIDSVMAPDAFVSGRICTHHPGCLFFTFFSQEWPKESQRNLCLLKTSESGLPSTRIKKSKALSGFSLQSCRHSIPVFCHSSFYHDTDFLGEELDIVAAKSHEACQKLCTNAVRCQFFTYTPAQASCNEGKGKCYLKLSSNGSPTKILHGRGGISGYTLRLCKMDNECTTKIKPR
T2 sequence (P03951 388-625, chain 2 of 2): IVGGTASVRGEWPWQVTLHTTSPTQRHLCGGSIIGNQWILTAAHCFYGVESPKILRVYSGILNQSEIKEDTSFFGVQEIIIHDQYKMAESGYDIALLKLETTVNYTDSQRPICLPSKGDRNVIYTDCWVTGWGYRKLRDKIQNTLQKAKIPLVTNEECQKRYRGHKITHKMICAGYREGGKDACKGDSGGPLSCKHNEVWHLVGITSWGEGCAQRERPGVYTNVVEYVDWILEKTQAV

T1 sequence (P03951 19-625 C226S): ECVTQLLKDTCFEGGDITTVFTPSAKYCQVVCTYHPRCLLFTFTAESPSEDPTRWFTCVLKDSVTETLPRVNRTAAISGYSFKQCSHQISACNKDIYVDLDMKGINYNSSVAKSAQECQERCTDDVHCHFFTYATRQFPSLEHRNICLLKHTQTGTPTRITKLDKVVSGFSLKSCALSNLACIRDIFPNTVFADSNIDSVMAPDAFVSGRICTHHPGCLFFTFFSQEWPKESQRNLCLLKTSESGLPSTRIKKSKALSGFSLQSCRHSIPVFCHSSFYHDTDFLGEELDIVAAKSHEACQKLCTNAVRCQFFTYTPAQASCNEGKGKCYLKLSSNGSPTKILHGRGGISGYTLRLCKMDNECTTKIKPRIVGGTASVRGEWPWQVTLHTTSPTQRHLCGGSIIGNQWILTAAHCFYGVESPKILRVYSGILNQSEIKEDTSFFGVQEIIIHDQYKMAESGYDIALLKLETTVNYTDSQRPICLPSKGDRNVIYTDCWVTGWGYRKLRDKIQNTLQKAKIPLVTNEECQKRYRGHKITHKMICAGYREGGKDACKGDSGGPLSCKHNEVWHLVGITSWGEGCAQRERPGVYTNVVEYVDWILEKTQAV

B1: NOV1401-Fab (Fab, V domains shown)
VH: QVQLLESGGGLVQPGGSLRLSCAASGFTFSTAAMSWVRQAPGKGLEWVSGISGSGSSTYYADSVKGRFTISRDNSKNTLYLQMNSLRAEDTAVYYCARELSYLYSGYYFDYWGQGTLVTVSS
VL: QSVLTQPPSASGTPGQRVTISCSGSSSNIGSNDVSWYQQLPGTAPKLLIYKNYNRPSGVPDRFSGSKSGTSASLAISGLQSEDEADYYCSAWDQRQFDVVFGGGTKLTVLG
notes: also called Fab portion of NOV1401
For B1, the “fold higher affinity than to the catalytic domain” value [1] was 300 times and the “fold higher affinity than to the catalytic domain” value [2] was 66 times.
